Test results reported in patent US20210186964, “METHODS OF TREATING CANCERS” (Dana-Farber Cancer Institute, Inc., published 2021).

T1: USP1 (UniProt O94782 SEQ:1-770)
T1 sequence: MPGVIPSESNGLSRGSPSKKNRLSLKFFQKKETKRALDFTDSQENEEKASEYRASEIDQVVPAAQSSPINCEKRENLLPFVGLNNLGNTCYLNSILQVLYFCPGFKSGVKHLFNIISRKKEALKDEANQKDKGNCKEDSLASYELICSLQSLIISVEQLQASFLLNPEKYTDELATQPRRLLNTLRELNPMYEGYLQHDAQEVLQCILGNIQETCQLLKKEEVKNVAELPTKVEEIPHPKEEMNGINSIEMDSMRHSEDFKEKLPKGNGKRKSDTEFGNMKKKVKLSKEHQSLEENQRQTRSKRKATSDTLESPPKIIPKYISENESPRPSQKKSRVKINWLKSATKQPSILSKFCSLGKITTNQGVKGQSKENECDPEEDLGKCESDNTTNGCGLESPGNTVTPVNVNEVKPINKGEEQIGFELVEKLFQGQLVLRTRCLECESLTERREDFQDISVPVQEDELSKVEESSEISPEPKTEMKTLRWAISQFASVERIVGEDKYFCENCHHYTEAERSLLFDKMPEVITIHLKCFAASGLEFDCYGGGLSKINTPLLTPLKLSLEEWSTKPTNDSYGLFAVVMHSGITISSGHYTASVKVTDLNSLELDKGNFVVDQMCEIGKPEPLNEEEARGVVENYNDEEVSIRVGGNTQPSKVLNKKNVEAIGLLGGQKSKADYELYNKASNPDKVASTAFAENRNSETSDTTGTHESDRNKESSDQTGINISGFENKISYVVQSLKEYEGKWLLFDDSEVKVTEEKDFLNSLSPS


Tests used:
USP12 = USP12 (UniProt O75317 SEQ:1-370); assay: EMSA; 300 nM USP12; details: label: Cy3
USP12, sequence (O75317 whole entry): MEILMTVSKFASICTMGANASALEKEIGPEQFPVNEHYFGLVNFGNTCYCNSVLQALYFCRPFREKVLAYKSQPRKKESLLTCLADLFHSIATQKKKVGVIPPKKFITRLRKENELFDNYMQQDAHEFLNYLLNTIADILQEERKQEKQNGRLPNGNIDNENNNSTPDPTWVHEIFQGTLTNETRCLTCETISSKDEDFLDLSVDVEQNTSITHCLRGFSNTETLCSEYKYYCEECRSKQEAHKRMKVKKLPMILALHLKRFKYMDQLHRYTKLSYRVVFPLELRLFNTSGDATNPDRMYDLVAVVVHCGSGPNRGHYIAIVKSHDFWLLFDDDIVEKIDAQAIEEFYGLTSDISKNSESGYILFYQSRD
Description: (§1) Recombinant USP1 and UAF1 proteins from R&D systems (E564, E566) were used for some electromobility shift assays and in vitro deubiquitination assays. Electromobility shift assays were performed by pre-incubating fluorophore (Cy3)-tagged DNA and purified protein in binding buffer (20 mM Hepes (pH 7.6), 0.1M KCl, 5 mM MgCl2, 3% (v/v) glycerol, 0.25 mg/ml BSA, 0.05 mM EDTA, 0.5 mM DTT, 0.01% (v/v) NP-40) for 30 min on ice. Samples were then loaded onto 6% polyacrylamide gels and ran at 65V in 0.5× TBE for 135 min at 4° C. Gels were visualized using the LAS-4000 imaging system (GE Healthcare Life Sciences, Pittsburgh, Pa.). DNA used for Ub-AMC, Ub-CHOP2 and electromobility shift assay were 40 bp in length and were designed to have minimal potential of secondary structure formation. The sequences are as follows:
USP1, USP12, and USP46 are related DUB proteins which bind and are stimulated by UAF1 (20, 23, 24, 31, 32). All three proteins contain a conserved UAF1 binding site, localized to a zinc finger region of each polypeptide (FIG. 10A). These USPs bind to a discrete WD40 domain of UAF1 (23, 24). Of the three proteins, USP1 is the largest protein, as shown by the sequence alignment with USP12 and USP46 (FIG. 10C).

UAF1 (WDR48) = UAF1 (WDR48) (UniProt Q8TAF3 Q8TAF3:1-677); assay: EMSA; 300 nM UAF1; details: tags: SF9-made or R&D systems E566, label: Cy3
UAF1 (WDR48), sequence (Q8TAF3 whole entry, one chain of several): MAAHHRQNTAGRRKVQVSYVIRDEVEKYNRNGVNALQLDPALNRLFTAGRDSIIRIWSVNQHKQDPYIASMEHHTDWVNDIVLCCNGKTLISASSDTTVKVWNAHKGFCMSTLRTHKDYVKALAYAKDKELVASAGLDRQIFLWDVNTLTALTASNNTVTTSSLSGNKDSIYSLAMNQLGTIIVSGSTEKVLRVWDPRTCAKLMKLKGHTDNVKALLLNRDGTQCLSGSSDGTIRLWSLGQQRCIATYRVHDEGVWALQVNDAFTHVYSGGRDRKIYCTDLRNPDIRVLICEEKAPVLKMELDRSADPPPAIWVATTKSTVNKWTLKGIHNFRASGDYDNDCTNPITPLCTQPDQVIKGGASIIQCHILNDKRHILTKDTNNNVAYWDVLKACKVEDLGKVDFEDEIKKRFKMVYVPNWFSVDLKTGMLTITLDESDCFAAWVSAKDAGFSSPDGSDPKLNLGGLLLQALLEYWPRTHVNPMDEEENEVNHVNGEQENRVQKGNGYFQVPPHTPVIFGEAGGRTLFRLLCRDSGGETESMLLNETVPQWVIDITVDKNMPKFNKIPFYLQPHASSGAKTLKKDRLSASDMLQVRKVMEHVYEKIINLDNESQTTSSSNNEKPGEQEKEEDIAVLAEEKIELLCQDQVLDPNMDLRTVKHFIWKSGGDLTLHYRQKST
Description: as §1
(§2) Since UAF1 has DNA binding activity, USP1 might also bind DNA and thereby stabilize replication forks. To test this hypothesis, DNA gel shift assays were performed with purified UAF1 protein with or without purified USP1 protein to analyze direct DNA binding activity. Purified proteins were incubated with either single strand DNA, double strand DNA, or fork DNA. The UAF1 protein and the USP1/UAF1 complex generated a reproducible gel shift of all three DNA templates.

USP1 = target: T1, USP1; assay: EMSA; 300 nM USP1; strongest shift; 5 mM MgCl2, 0.1 M KCl, on ice; not disrupted by ML323 (FIG. 11C); details: tags: SF9-made or R&D systems E564; label: Cy3; fork with non-complementary single-stranded arms
Description: as §1, §2

USP1/UAF1 complex = USP1/UAF1 complex (UniProt O94782;Q8TAF3 O94782:1-785,Q8TAF3:1-677); assay: EMSA; 100 nM USP1 + 300 nM UAF1; details: tags: SF9-made, R&D systems or Boston Biochem, label: Cy3
USP1/UAF1 complex, sequence (Q8TAF3 whole entry, one chain of several): as above
Description: as §1, §2

[1] = fork with non-complementary single-stranded arms

Row | Binder | binding result (USP12; [1]) | binding result (UAF1 (WDR48); [1]) | binding result (USP1) | binding result (USP1/UAF1 complex; [1]) | binding result (USP12) | binding result (UAF1 (WDR48)) | binding result (USP1/UAF1 complex)
1 | 40-mer fork DNA (structured_DNA) DNA 1: CCAGTGAATTGTTGCTCGGTACCTGCTAACGGTAATCGG DNA 2: CAGCTATGGGACATTCGATACCGAGCAACAATTCACTGG | no binding | binds | binds | binds |  |  | 
2 | 40-mer dsDNA (dsDNA) DNA 1: CCAGTGAATTGTTGCTCGGTACCTGCTAACGGTAATCGG DNA 2: CCGATTACCGTTAGCAGGTACCGAGCAACAATTCACTGG |  |  |  |  | no binding | binds | binds
3 | CCAGTGAATTGTTGCTCGGTACCTGCTAACGGTAATCGG (ssDNA) [40-mer ssDNA (top)] |  |  |  |  | no binding | binds | binds
